In PMC10397247 one finds interaction score data, which are given here for 8 molecules.

Where two headings read alike, the source gives them in different places.

Experiment [1] concerns the target T1, 4H683-bA.
T1 chain: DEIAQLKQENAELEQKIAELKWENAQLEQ
The experiment in a line: two-hybrid library CCNG1.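 Also: natural log of median RNA to DNA barcode read ratio; higher means stronger binding.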

The target of experiment [2] is T2, 4H780-bA.
T2 chain: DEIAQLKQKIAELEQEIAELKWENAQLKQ
The experiment can be described thus: two-hybrid library CCNG1.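 Also: natural log of median RNA to DNA barcode read ratio; higher means stronger binding.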

Experiment [3] has as its target T3, 4H953-bA.
T3 chain: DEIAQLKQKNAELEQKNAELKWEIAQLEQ
The experiment can be described thus: two-hybrid library CCNG1.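 Also: natural log of median RNA to DNA barcode read ratio; higher means stronger binding.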

Experiment [4] deals with T4, 4H855-bA.
T4 chain: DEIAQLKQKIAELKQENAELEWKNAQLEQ
The experiment in a line: two-hybrid library CCNG1.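 Also: natural log of median RNA to DNA barcode read ratio; higher means stronger binding.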

Experiment [5] deals with T5, 4H918-bA.
T5 chain: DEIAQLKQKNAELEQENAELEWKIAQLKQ
The experiment in a line: two-hybrid library CCNG1.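 Also: natural log of median RNA to DNA barcode read ratio; higher means stronger binding.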

Experiment [6] concerns the target T6, 4H754-bA.
T6 chain: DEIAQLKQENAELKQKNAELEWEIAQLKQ
The experiment can be described thus: two-hybrid library CCNG1.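 Also: natural log of median RNA to DNA barcode read ratio; higher means stronger binding.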

Experiment [7] concerns the target T7, 4H575-bA.
T7 chain: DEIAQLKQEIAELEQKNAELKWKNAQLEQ
The experiment in a line: two-hybrid library CCNG1.

The target in experiment [8] is T8, 4H968-bA.
T8 chain: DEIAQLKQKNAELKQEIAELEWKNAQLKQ
The experiment can be described thus: two-hybrid library CCNG1.

Experiment [9] concerns the target T9, 4H797-bA.
T9 chain: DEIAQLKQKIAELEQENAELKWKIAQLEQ
The experiment in a line: two-hybrid library CCNG1.

Experiment [10] has as its target T10, P7A-bA.
T10 chain: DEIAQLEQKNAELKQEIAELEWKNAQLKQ
The experiment can be described thus: two-hybrid library CCNG1.

The target in experiment [11] is T11, P8A-bA.
T11 chain: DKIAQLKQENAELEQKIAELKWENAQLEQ
The experiment can be described thus: two-hybrid library CCNG1.

Experiment [12] has as its target T12, P9A-bA.
T12 chain: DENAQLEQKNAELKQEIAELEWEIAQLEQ
The experiment can be described thus: two-hybrid library CCNG1.

Experiment [13] deals with T13, P2-AA-1HAA-I.
T13 chain: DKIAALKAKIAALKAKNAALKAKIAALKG
The experiment can be described thus: two-hybrid library CCmax. As to conditions: mean of both orientations.

In experiment [14] the target is T14, P2-AA-1HAA-R.
T14 chain: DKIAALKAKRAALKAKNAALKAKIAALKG
The experiment can be described thus: two-hybrid library CCmax. As to conditions: mean of both orientations.

The target of experiment [15] is T15, P2-AA-1HAA-E.
T15 chain: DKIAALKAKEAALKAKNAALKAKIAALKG
The experiment can be described thus: two-hybrid library CCmax. As to conditions: mean of both orientations.

Experiment [16] deals with T16, P2-AA-1HAA-V.
T16 chain: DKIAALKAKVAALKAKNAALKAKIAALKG
The experiment can be described thus: two-hybrid library CCmax. As to conditions: mean of both orientations.

Experiment [17] concerns the target T17, P2-AA.
T17 chain: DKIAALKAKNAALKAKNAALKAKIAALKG
The experiment in a line: two-hybrid library CCmax. As to conditions: mean of both orientations.

The target in experiment [18] is T18, P2-AA-1HAA-D.
T18 chain: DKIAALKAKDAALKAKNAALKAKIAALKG
The experiment can be described thus: two-hybrid library CCmax.

The target of experiment [19] is T19, P2-AA-1HAA-S.
T19 chain: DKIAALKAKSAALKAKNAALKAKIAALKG
The experiment can be described thus: two-hybrid library CCmax. As to conditions: mean of both orientations.

Experiment [20] concerns the target T20, P2-AA-1HAA-T.
T20 chain: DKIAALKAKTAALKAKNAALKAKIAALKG
The experiment can be described thus: two-hybrid library CCmax. As to conditions: mean of both orientations.

Experiment [21] deals with T21, O4-bP.
T21 chain: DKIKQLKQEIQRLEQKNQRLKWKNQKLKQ
The experiment can be described thus: two-hybrid library CCNG1.

In experiment [22] the target is T22, O8-bP.
T22 chain: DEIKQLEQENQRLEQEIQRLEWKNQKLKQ
The experiment can be described thus: two-hybrid library CCNG1.

In experiment [23] the target is T23, O7-bP.
T23 chain: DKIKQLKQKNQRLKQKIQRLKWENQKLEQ
The experiment can be described thus: two-hybrid library CCNG1.

For experiment [24], the target named is T24, O6-bP.
T24 chain: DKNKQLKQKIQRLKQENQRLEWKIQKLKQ
The experiment in a line: two-hybrid library CCNG1.

For experiment [25], the target named is T25, O9-bP.
T25 chain: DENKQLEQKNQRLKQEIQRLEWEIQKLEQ
The experiment can be described thus: two-hybrid library CCNG1.

The target in experiment [26] is T26, O5-bP.
T26 chain: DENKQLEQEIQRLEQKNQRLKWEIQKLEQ
The experiment can be described thus: two-hybrid library CCNG1.

Experiment [27] deals with T27, 4H3613-bN.
T27 chain: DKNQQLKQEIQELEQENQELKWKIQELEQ
The experiment can be described thus: two-hybrid library CCNG1.

Experiment [28] concerns the target T28, 4H591-bN.
T28 chain: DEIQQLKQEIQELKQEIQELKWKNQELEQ
The experiment can be described thus: two-hybrid library CCNG1.

The target of experiment [29] is T29, 4H492-bN.
T29 chain: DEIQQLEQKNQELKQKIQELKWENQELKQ
The experiment can be described thus: two-hybrid library CCNG1.

Experiment [30] deals with T30, 4H477-bN.
T30 chain: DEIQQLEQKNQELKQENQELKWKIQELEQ
The experiment in a line: two-hybrid library CCNG1.

In experiment [31] the target is T31, 4H40-bN.
T31 chain: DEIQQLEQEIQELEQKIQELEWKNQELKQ
The experiment can be described thus: two-hybrid library CCNG1.

The target in experiment [32] is T32, 4H626-bN.
T32 chain: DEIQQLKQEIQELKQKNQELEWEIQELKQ
The experiment can be described thus: two-hybrid library CCNG1.

Experiment [33] addresses T33, 4H3462-bN.
T33 chain: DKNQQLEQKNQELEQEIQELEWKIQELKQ
The experiment in a line: two-hybrid library CCNG1.

For experiment [34], the target named is T34, 4H3926-bN.
T34 chain: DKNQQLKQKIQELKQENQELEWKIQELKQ
The experiment in a line: two-hybrid library CCNG1.

Experiment [35] addresses T35, 4H3298-bN.
T35 chain: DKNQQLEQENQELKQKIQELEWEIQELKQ
The experiment in a line: two-hybrid library CCNG1.

Experiment [36] has as its target T36, 4H741-bN.
T36 chain: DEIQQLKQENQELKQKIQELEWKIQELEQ
The experiment can be described thus: two-hybrid library CCNG1.

Experiment [37] has as its target T37, 4H3628-bN.
T37 chain: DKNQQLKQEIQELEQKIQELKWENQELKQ
The experiment can be described thus: two-hybrid library CCNG1.

For experiment [38], the target named is T38, 4H906-bN.
T38 chain: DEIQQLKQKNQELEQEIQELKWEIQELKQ
The experiment can be described thus: two-hybrid library CCNG1.

Experiment [39] deals with T39, 4H348-bN.
T39 chain: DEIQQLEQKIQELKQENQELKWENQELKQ
The experiment in a line: two-hybrid library CCNG1.

Experiment [40] has as its target T40, 4H754-bN.
T40 chain: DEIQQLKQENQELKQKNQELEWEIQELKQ
The experiment can be described thus: two-hybrid library CCNG1.

The target of experiment [41] is T41, 4H3497-bN.
T41 chain: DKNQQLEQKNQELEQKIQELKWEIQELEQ
The experiment can be described thus: two-hybrid library CCNG1.

Experiment [42] addresses T42, 4H3277-bN.
T42 chain: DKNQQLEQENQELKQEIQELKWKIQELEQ
The experiment in a line: two-hybrid library CCNG1.

In the case of DEIAQLKQEIAELEQKNAELKWKNAQLEQ [4H575-bA], the interaction score was -0.37 in experiment [1]; -1.33 in experiment [2]; -0.885 in [3]; 1.12 in experiment [4]; 0.24 in experiment [5]; -0.786 in experiment [6]. Also, the interaction score was -0.354 in [7], -0.872 in [8], -0.567 in experiment [9] and -1.17 in experiment [10].

Consider DKNAQLKQEIAELEQENAELEWKIAQLKQ [P6A-bA], for which the interaction score in [11] was 0.137; in experiment [10], 0.285; in experiment [12] it was -1.98.

In the case of DEIAALEAESAALEAENAALEAEIAALEG [P1-AA-1HAA-S], the interaction score in experiment [13] was 2.17; in [14] it was 2.17; in [15] it was 1.97; in [16], 2; in [17] it was 2.06; in experiment [18] (mean of both orientations) it was 1.28. For the same molecule, the interaction score in experiment [19] amounted to 1.18; in experiment [20] it was 1.87.

With DKIKQLKQEIQRLEQKNQRLKWKNQKLKQ [O4-bP], the interaction score is -0.959 in experiment [21]; -2.5 in [22]; -0.866 in experiment [23]; -0.676 in [24]; -0.425 in [25]; -0.998 in [26].

Take DKNQQLEQENQELKQEIQELKWKIQELEQ [4H3277-bN]: the interaction score in experiment [27] was -1.08; in experiment [28], -1.66; in experiment [29], -1.45; in experiment [30], -1.11; in experiment [31], 0.44; in experiment [32], -0.819. Also, the interaction score was -1 in [33]; -0.4 in experiment [34]; -0.281 in experiment [35]; -0.405 in experiment [36]; -0.458 in experiment [37]; -1.79 in experiment [38]. For the same molecule, the interaction score is -1.89 in experiment [39], -1.54 in experiment [40], -0.895 in [41] and 1.19 in experiment [42].

Consider DEIAQLEQKNAELKQEIAELEWKNAQLKQ [P7A-bA], for which the interaction score was 1.79 in [11], -0.889 in [10] and -0.632 in [12].

Consider DEIAALEAEKAALEAENAALEAEIAALEG [P1-AA-1HAA-K], for which the interaction score in experiment [13] came to 1.82; in [14], 1.56; in experiment [15], 0.472; in [16], 2.1; in experiment [18] (mean of both orientations) it was 0.24; in experiment [19] it was 1.97. The interaction score in [20] turned out to be 2.06.

Take DEIAALEAEHAALEAENAALEAEIAALEG [P1-AA-1HAA-H]: the interaction score amounted to 1.98 in [13]; 1.34 in experiment [14]; 0.913 in experiment [15]; 1.33 in experiment [16]; 1.5 in [18]; 1.91 in [19]. For the same molecule, in experiment [20], the interaction score turned out to be 2.13.
